Reference: article PMC12207404, “Significance of the CTP-binding motif for the interactions of S. coelicolor ParB with DNA, chromosome segregation, and sporogenic hyphal growth” (Nucleic Acids Research, 2025)

Key:
[1] = test system: ScParB (Streptomyces coelicolor); assay: BLI; details: no CTP, BLI: 100 mM Tris-HCl pH 8.0, 100 mM NaCl, 1 mM MgCl2, 0.005% Tween 20, 30 C, EMSA: 100 mM Tris-HCl pH 8.0, 100 mM NaCl, 10% glycerol, 1 mM DTT, 1 mM EDTA …
[2] = target: T1, ScParB (S. coelicolor ParB) (Streptomyces coelicolor, UniProt Q9RFM2); assay: TNP-CTP fluorescence enhancement at […] nm; type: binding; details: 1 μM protein, 5 μM TNP-CTP, no DNA, 1 mM MgCl2, pH 8.0, room temperature; labelled compound
T1 construct: full-length; N-terminal GST fusion from pGEX-6P-1_parB, GST removed with PreScission protease; expressed in E. coli BL21 pLysS; dimer

[3] = target: the molecule itself; assay: cross-linking; glutaraldehyde (0.03%, 0.06% or 0.12%), 4 μM ScParB variant, 100 mM Tris-HCl pH 8.0, 100 mM NaCl, 1 mM MgCl2, 0.005% Tween 20, 30°C, 30 min; optionally 4 mM CTP or 4 μM 34-bp parS dsDNA; SDS-PAGE, Coomassie, percent of dimer and HMW complex of the lane's total signal
[4] = target: the molecule itself; assay: two-hybrid; bacterial two-hybrid (BACTH): pUT18C and pKT25 derivatives cotransformed into E. coli BTH101; blue colonies on LB agar with X-gal and 0.5 mM IPTG, 30°C, and β-galactosidase activity (Miller units)

T1 sequence (Q9RFM2 entry or part of it): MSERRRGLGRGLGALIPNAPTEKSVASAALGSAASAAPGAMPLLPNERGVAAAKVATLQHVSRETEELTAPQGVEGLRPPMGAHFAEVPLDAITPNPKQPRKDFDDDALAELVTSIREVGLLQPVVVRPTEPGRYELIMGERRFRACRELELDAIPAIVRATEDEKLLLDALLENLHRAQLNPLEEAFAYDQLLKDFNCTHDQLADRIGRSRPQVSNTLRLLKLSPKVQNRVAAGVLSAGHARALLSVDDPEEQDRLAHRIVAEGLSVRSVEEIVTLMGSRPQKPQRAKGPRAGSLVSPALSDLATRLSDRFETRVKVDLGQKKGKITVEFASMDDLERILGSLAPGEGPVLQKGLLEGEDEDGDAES

**Q.** For 300-bp parS, one-end biotin, which Kd [1] is on record?
**A.** 271 nM

**Q.** 300-bp parS, two-end biotin was tested. Which Kd ([1]; Discussion prints 176) did it give?
**A.** 167 nM

**Q.** Which “relative fluorescence (RU)” value [2] does the source give for `Nc1ccn([C@@H]2O[C@H](COP(=O)(O)OP(=O)(O)OP(=O)(O)O)[C@H]3OC4(O[C@H]32)C([N+](=O)[O-])=CC(=[N+]([O-])O)C=C4[N+](=O)[O-])c(=O)n1` (some centres unmarked) [TNP-CTP, 2′,3′-O-trinitrophenyl-cytidine-5′-triphosphate] here?
**A.** 1.16 ± 0.06 RU

B1: ScParB^R142A, purified recombinant (natural protein)
chain: MSERRRGLGRGLGALIPNAPTEKSVASAALGSAASAAPGAMPLLPNERGVAAAKVATLQHVSRETEELTAPQGVEGLRPPMGAHFAEVPLDAITPNPKQPRKDFDDDALAELVTSIREVGLLQPVVVRPTEPGRYELIMGEARFRACRELELDAIPAIVRATEDEKLLLDALLENLHRAQLNPLEEAFAYDQLLKDFNCTHDQLADRIGRSRPQVSNTLRLLKLSPKVQNRVAAGVLSAGHARALLSVDDPEEQDRLAHRIVAEGLSVRSVEEIVTLMGSRPQKPQRAKGPRAGSLVSPALSDLATRLSDRFETRVKVDLGQKKGKITVEFASMDDLERILGSLAPGEGPVLQKGLLEGEDEDGDAES
notes: source: E. coli BL21 (DE) pLysS, purified (Glutathione Sepharose 4B, cleaved with PreScission protease); not shown: GST, N-terminal, cleaved
**Q.** For B1, which “fold enhancement of dimerization against wild-type ScParB” value [3] is on record?
**A.** ≤ 3 fold

B2: ScParB^R142A, bacterial two-hybrid fusion (natural protein)
chain: B1 chain
notes: also called R142A-substituted variant; source: bacterial two-hybrid fusion (pUT18C and pKT25 derivatives), in E. coli BTH101
**Q.** B2 was tested. Which “fold enhancement of dimerization against wild-type ScParB” value [4] did it give?
**A.** ≤ 3 fold
